The values that follow come from paper PMC10080908.

In general, Kd refers to the constant that tells how readily two partners part at equilibrium. Usually stoichiometry N stands for a count of units in the complex or per binding partner.

“And” between values parts separate entries of the source, which are not always exact repeats. Equal values may be shown once.

Experiment [1] addresses UBXN7-UAS recombinant protein (human) (UniProt O94888). The experiment is described as follows: ITC; VP-ITC, 25 °C, PBS pH 7.4 with 1 mM TCEP; 200 µM RNF111 RING domain injected (20 x 10 µl) into 10 µM UBXN7-WT or UBXN7-UAS or 15 µM UBXN7-∆UAS; single binding site model. For orientation: ITC needs no label: the signal is the heat of the interaction.
For experiment [2], the target named is UBXN7-WT (human) (UniProt O94888). Described as above.
UBXN7-WT (human), sequence (O94888 whole entry, the tested form may be a part): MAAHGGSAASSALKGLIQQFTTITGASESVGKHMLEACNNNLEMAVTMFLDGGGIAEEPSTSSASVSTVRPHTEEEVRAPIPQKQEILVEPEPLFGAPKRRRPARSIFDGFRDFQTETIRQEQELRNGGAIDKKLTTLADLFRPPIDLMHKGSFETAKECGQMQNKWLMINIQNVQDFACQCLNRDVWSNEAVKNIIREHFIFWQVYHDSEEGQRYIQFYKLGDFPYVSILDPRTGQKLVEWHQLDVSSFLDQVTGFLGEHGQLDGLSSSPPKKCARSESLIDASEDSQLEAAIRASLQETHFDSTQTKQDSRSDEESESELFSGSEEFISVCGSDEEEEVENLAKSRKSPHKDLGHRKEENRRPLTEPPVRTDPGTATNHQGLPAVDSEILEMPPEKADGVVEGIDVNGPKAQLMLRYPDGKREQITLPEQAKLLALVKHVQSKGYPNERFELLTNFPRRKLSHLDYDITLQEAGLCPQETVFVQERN
Experiment [3] shares this target. The experiment is described as follows: ITC; VP-ITC; 200 µM RNF111 RING domain injected (20 x 10 µl) into 10 µM UBXN7-WT or UBXN7-UAS, or into 15 µM UBXN7-∆UAS, in the cell; 25 °C; phosphate-buffered saline pH 7.4, 1 mM TCEP; single binding site model.

UBXN7-UAS recombinant protein (human), sequence (O94888 94-284): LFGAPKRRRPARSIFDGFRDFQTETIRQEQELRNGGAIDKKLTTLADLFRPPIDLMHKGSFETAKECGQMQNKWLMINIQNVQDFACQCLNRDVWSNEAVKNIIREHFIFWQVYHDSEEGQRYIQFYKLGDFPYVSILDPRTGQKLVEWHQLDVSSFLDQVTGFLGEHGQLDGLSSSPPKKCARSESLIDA

As to “RNF111-RING recombinant protein (domain or fragment)”, in experiment [1], the Kd came to 0.9 µM and the stoichiometry N came out at 1. In experiment [2], this substance had a dissociation constant (Kd) of 2.3 µM and a stoichiometry N of 1.

“RNF111 RING domain (RNF111-RING, aa 895 to Cter) (domain or fragment)”: the equilibrium dissociation constant (Kd) was 2.49 µM and 2.26 µM in experiment [3]; 2.37 µM in experiment [3] (mean). Besides, the stoichiometry N was 0.928 and 1.11 in experiment [3]; 1.02 in experiment [3] (mean).
